B1: E3: humanized, affinity matured anti-NGF antagonist antibody; variable regions SEQ ID NO:1 and 2; human IgG2a (A330P331 to S330S331), kappa (antibody, V domains shown)
VH: QVQLQESGPGLVKPSETLSLTCTVSGFSLIGYDLNWIRQPPGKGLEWIGIIWGDGTTDYNSAVKSRVTISKDTSKNQFSLKLSSVTAADTAVYYCARGGYWYATSYYFDYWGQGTLVTVS
VL: DIQMTQSPSSLSASVGDRVTITCRASQSISNNLNWYQQKPGKAPKLLIYYTSRFHSGVPSRFSGSGSGTDFTFTISSLQPEDIATYYCQQEHTLPYTFGQGTKLEIKRT
modifications: human IgG2a constant (A330S/P331S) and kappa constant missing

What was measured:
[1] = tested on: complete Freund's adjuvant (CFA)-induced chronic arthritis; assay: CFA-induced chronic arthritis in rats, nociceptive response (vocalization test, Example 8); assay type: in vivo, rat; details: for nociceptive response (vocalization): arthritic rats, E3 1 mg/kg or 911 10 mg/kg i.v. D14+D19, indomethacin 3 mg/kg/day p.o. 10 days
Method: […]. Analgesic effects of E3 and 911 were evaluated by the measurement of nociceptive response. Anti-inflammatory effects were evaluated by paw volume, arthritis index (inflammation score), body and hindpaws weight. […].
Five groups of 10 animals (5-weeks old male Lewis rats-LEWIS Lew/Ico, from Charles River Laboratories—Belgium) each were included in this study: Group 1: non arthritic rats/saline (vehicle), i.v. bolus, n=10; Group 2: arthritic rats/saline (vehicle), i.v. bolus, n=10; Group 3: arthritic rats/Indomethacin 3 mg/kg, p.o daily over 10 days, n=10; […]; Group 5: arthritic rats/911, 10 mg/kg, i.v. bolus, n=10. The doses were expressed in terms of free active substance (mg/kg). E3 and 911 were extemporaneously prepared in saline from the stock solution to the desired concentration. […]. All diluted solutions (before i.v. injection) were sterilized using a sterile filter unit of 0.20.μm. pH and osmolarity values of diluted solutions were measured before each i.v. injection. Before the first i.v., osmolarity (mosm/L) for saline, E3, and 911 were 278, 269, and 308 respectively; pH for saline, E3, and 911 were 5.93, 6.76, 6.71 respectively. Before the second i.v., osmolarity (mosm/L) for saline, E3, and 911 were 280, 270, and 309 respectively; pH for saline, E3, and 911 were 5.86, 6.72, and 6.59 respectively.
E3 or 911 or saline were administered by i.v. bolus injection on Day 14 and Day 19 after arthritis induction in a coded and random order with a volume of 5 mL/kg. The non arthritic group was given by i.v. bolus injection of saline on Day 14 and Day 19 with a volume of 5 mL/kg. Indomethacin was extemporaneously prepared in 1% methylcellulose. Indomethacin was administered by oral route (p.o.) once daily over 10 days from Day 14 to Day 23 after arthritis induction in a coded and random order with a volume of 10 mL/kg.
On Day 0 (D 0), arthritis was induced in 70 rats by intradermal injection into the tail of 0.05 ml of a Mycobacterium butyricum suspension.
The nociceptive response was evaluated by gentle flexion of the right and left hindpaw repeatedly 2 times at intervals of 4 to 5 sec with a finger of the operator (arthritic rats). The intensity of the level of vocalization was recorded for each animal for each hindpaw (2 times: on right hindpaw: s1 and s3; 2 times: on left hindpaw: s2 and s4). This evaluation was performed at the following times (after induction of arthritis): Day 14 (before i.v. bolus or p.o. administration); Day 18 (before the second i.v. bolus injection or 1 hr after p.o. administration); and Day 24 (5 days after the last i.v. bolus injection or 24 h after the last p.o. administration). All measurements were performed between 9:00 and 12:00 am except at D 14 (7:30-9:00 am) and D 24 (7:30-9:00 am).
All results were reported as Mean ±S.E.M. of 10 rats in each group at each time point. Paw volume was expressed in ml calculated from the mean value of the right and left paw volume. Arthritis index was calculated from the sum of the score obtained for each of the 4 paws. The nociceptive response was evaluated by the intensity of the level of vocalization recorded for each animal (mean of 4 values: 2 times/paw) in mV. The percentage inhibition of the nociceptive response was calculated from the mean value of the vehicle-treated arthritic group [(mean value of vehicle-treated arthritic group−mean value of treated arthritic group/mean value of vehicle-treated arthritic group)*100]. Body weight was expressed in grams. Hindpaws (left and right) weight was expressed in grams. Cytokine levels (IL-6, IL-1β, TNF-α and TGF-β1) of each hind paw was expressed in pg/ml. Circulating levels of TGF-β1 was expressed in pg/ml. Radiological index for each parameter (demineralization, erosions, periostal reaction, soft tissue damage, space joint, osteogenesis deformity) and total radiological index (total score) were calculated from the sum of the scores obtained for each parameter. […]

[2] = tested on: complete Freund's adjuvant (CFA)-induced chronic arthritis; assay: CFA arthritis rats, hindpaw weight; assay type: in vivo, rat; details: arthritic rats; E3 1 mg/kg or 911 10 mg/kg i.v. D14+D19, indomethacin 3 mg/kg p.o. over 10 days; D24
Method: On Day 24 (5 days after the last i.v. bolus injection or 24 hours after the last p.o. administration) (after X-rays radiographies), each animal hindpaw (arthritic and non arthritic rats) was weighed and was collected in a labelled polyethylene vial. Tissue samples were frozen in liquid nitrogen and stored at −80° C.
All results were reported as Mean ±S.E.M. of 10 rats in each group at each time point. Paw volume was expressed in ml calculated from the mean value of the right and left paw volume. Arthritis index was calculated from the sum of the score obtained for each of the 4 paws. The nociceptive response was evaluated by the intensity of the level of vocalization recorded for each animal (mean of 4 values: 2 times/paw) in mV. The percentage inhibition of the nociceptive response was calculated from the mean value of the vehicle-treated arthritic group [(mean value of vehicle-treated arthritic group−mean value of treated arthritic group/mean value of vehicle-treated arthritic group)*100]. Body weight was expressed in grams. Hindpaws (left and right) weight was expressed in grams. Cytokine levels (IL-6, IL-1β, TNF-α and TGF-β1) of each hind paw was expressed in pg/ml. Circulating levels of TGF-β1 was expressed in pg/ml. Radiological index for each parameter (demineralization, erosions, periostal reaction, soft tissue damage, space joint, osteogenesis deformity) and total radiological index (total score) were calculated from the sum of the scores obtained for each parameter. The inter-group significances of the deviations between the values of vehicle-treated group (arthritic rats) and vehicle-treated group (non arthritic rats) were assessed by the Student t test or Mann-Whitney Rank Sum Test when equal variance or normality test failed. The inter-group significances of the deviations between the values of vehicle-treated group (arthritic rats) and E3- and 911- and Indomethacin-treated groups were assessed by the 1-way analysis of variance ANOVA followed by the non-paired Dunnett t test. A probability of P<0.05 was considered as significant. All statistical analysis was performed by the Sigmastat™ software.

[3] = E3 1 mg/kg or 911 10 mg/kg i.v. D14+D19, indomethacin 3 mg/kg/day p.o., D24
[4] = E3 1 mg/kg or 911 10 mg/kg i.v., indomethacin 3 mg/kg/day p.o., D14
[5] = E3 1 mg/kg or 911 10 mg/kg i.v., indomethacin 3 mg/kg/day p.o., D18

| Molecule | % inhibition of nociceptive response vs vehicle-treated arthritic group [1, 3] [%] | decrease of nociceptive response vs vehicle-treated arthritic group [1, 3] [mV] | % inhibition of nociceptive response vs vehicle-treated arthritic group [1, 4] [%] | % inhibition of nociceptive response vs vehicle-treated arthritic group [1, 5] [%] | decrease of nociceptive response vs vehicle-treated arthritic group [1, 5] | nociceptive response (vocalization) ([1]; D14 (before dosing)) [mV] | nociceptive response (vocalization) ([1]; D18) [mV] | nociceptive response (vocalization) ([1]; D24) [mV] | left hindpaw weight [2] [grams] | right hindpaw weight [2] [grams] | analgesic effects in arthritis model (conclusion) ([1]; E3 1 mg/kg i.v., 911 10 mg/kg i.v., D14+D19) |
| --- | --- | --- | --- | --- | --- | --- | --- | --- | --- | --- | --- |
| COc1ccc2c(c1)c(CC(=O)O)c(C)n2C(=O)c1ccc(Cl)cc1 [Indomethacin, reference compound] | 74 | ~−4353 | 0 | 71 | about −3768 mV | 4386±235 | 1511±398 | 1552±508 | 2.23±0.04 | 2.20±0.05 |  |
| B1 | 100 | ~−5905 | 0 | 79 | about −4167 mV | 4644±367 | 1112±401 | 0±0 | 3.86±0.14 | 3.72±0.13 | strong analgesic effects |

— patent US20080182978A1, “ANTI-NGF ANTIBODIES AND METHODS USING SAME” (RINAT NEUROSCIENCE CORP, priority 2002, published 2008)
